Patent publication US20100278829A1, “DUAL INHIBITION OF IMMUNOPHILIN/CYCLOPHILIN FAMILY MEMBERS AND EMMPRIN IMMUNOGLOBULIN RECEPTOR SUPERFAMILY MEMBERS” (priority 2009, published 2010)
Several values for one entry are separate records, joined by “and”; a condition that tells them apart may be missing. Identical values can stand only once.

What was measured:
[1] = target: T1, CD147 Pro211 (Homo sapiens, UniProt P35613); assay: ZZ-exchange NMR of CypA-mediated peptidyl-prolyl isomerization of CD147; type: biochemical; conditions: for kex (s−1), apparent catalytic exchange rate: [CD147^94-214]=0.5 mM
T1 construct: both containing 0.5 mM ^15N-CD147^94-214 at 25° C; made in house
T1 sequence (P35613 94-214 isoform P35613-2): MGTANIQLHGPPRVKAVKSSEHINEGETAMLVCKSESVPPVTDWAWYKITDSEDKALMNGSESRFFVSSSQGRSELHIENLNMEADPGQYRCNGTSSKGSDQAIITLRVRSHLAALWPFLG
Description: For ZZ-exchange experiments, the pulse scheme of Farrow et al. was employed with a selective adiabatic CHIRP pulse applied in the center of the mixing period for water suppression. (69) Two data sets were collected at 720 MHz on two samples with either 0.01 or 0.05 mM CypA and both containing 0.5 mM ^15N-CD147^94-214 at 25° C. and analyzed as previously described to calculate the apparent cis/trans exchange rate (kex). […] Equations (1a), (1b), (1c), and (1d) below were used to simultaneously fit the auto trans peak (Itt), the auto cis peak (Icc), the trans→cis exchange peak (Itc) and the cis→trans exchange peak (Ict), respectively, as a function of τm·Itt(0) and Icc(0) are the initial intensities of the trans and cis auto peaks, respectively, a11=R1t+ktc, a22=R1c+kct, a21=−ktc, and a12=−kct. Finally, under these conditions, ktc and kct can be recast as a function of their free Keq (Pcis/Ptrans=0.33/0.67), and thus, ktc=0.33 kex and kct=0.67 kex.
GraphPad Prism version 4.0 (GraphPad Software Inc., San Diego, Calif.) was used to simultaneously fit all resolvable peaks within CD147 residues 207-214.
ZZ-exchange was used to determine the apparent catalytic exchange rate of CypA-mediated peptidyl-prolyl isomerization of CD147 Pro211, providing a quantitative analysis of the active CypA/CD147 complex (FIG. 49). Specifically, two ZZ-exchange experiments were collected using identical concentrations of 0.5 mM 15N-CD147^94-214 but with two substoichiometric concentrations of the enzyme (i.e., catalytic concentrations) of 0.01 mM (FIG. 49A) and 0.05 mM (FIG. 49B) CypA. Under each condition, the apparent exchange rate (kex), which is the sum of the apparent cis-trans (i.e., kct) and […] (i.e., ktc) catalytic rates, was determined to quantify the rate enhancement of CypA-mediated catalysis (Table 1).

[2] = tested on: Human primary skin keratinocytes (Hka); assay: Cytokine stimulation of Hka, ECL and qRT-PCR readout; type: cell-based
Description: Cell stimulation. Primary T-cells, H9 cells and Th22 cells (1×10^6 cells/ml) were stimulated with PMA (1 ng/ml) and lonomycin (500 ng/ml) for 18 hrs at 37° C. HKa were stimulated with TNFα (1 ng/ml), TNFα (10 ng/ml)+PEG sTNF-RI (10 μg/ml), IL-1β (10 ng/ml), IL-1β ng/ml+IL-1ra 10 µg/ml, IL-1β ng /ml+TNFα 10 ng/ml and IL-32α or IL-32β for 24 hrs. Hka were stimulated with activated H9 and primary T-cells for 24 hrs at 37° C. PEGsTNF-RI and IL-1ra was obtained from Amgen (Thousand Oaks, Calif.).
ECL. A polyclonal antibody produced in rabbits against recombinant IL-32γ was used for ECL. IgG was prepared with Econo-Pac and then affinity purified through IL-32-immobilized agarose bead column of Affi-gel 15. An aliquot of the affinity purified anti-IL-32γ antibody was labeled with biotin and another aliquot with ruthenium according to the manufacturer's instructions (BioVeris, Gaithersburg, Md.). […] The liquid-phase ECL method was used to measure TNFα, IL-1β, IL-6, IL-8 and IL-32γ in human primary keratinocytes cell culture media and cell lysates in 0.5% Triton-X. The amount of ECL was determined by using an Origen Analyzer (BioVeris).
Quantitative real-time quantitative polymerase chain reaction (TaqMan) analysis (qRT-PCR). […] The amount of cDNA added to each reaction was held to a relatively narrow range, determined by the measurement of 18S RNA. […]

Substance: CypA: recombinant cyclophilin A, peptidyl-prolyl isomerase enzyme ligand of CD147
- kct (cis→trans catalytic rate) ([1]; CypA:CD147 ratio of 1:10): 40 s⁻¹
- ktc (trans→cis catalytic rate) ([1]; CypA:CD147 ratio of 1:10): 20 s⁻¹
- kex (s−1), apparent catalytic exchange rate ([1]; [CypA]=0.01 mM, 25° C.): 9.6 ± 3.5 s⁻¹
- kex (s−1), apparent catalytic exchange rate ([1]; [CypA]=0.05 mM, 25° C.): 44.3 ± 8.1 s⁻¹
- kex extrapolated to the 1:1 / fully bound complex ([1]; extrapolated with the peptide Kd, 25° C.): ~6000 s⁻¹ and 4000 to 4800 s⁻¹
- kex (=kct+ktc) ([1]; substoichiometric CypA concentrations): ~60 s⁻¹

Substance: IL1ra: recombinant human IL-1 receptor antagonist (Amgen)
- reversal of IL1β/TNFα-induced IL32γ gene expression in Hka ([2]; qRT-PCR, FIG. 36): reversed

Substance: rhuIL-1β: recombinant human IL-1β (R&D Systems) used as inflammatory stimulus
- induction of cytoplasmic IL-32γ in Hka ([2]; ECL, cell lysates, +48 hours culture): induced highly significant (P<0.001) levels
